Measured values as given in patent US20180326085A1.

Target: biotinylated recombinant human c-MET ECD (HGFR extracellular domain) (human) (UniProt P08581)
Assay: HGF competition ELISA: HGF on the plate, biotinylated c-MET ECD pre-incubated with the antibody; blocked ligand HGF

IC50 (read off the curve): 3 nM
Substance: 224G11 (antibody)
